Results published in article doi:10.1101/116178.

Molecular target: RFP-p62 (UniProt Q13501)
Assay: co-IP

mHTT aa1-1212 138Q-C6R (domain or fragment)
fold binding against cleavable mHTT: 2 fold
